“And” between values parts separate entries of the source, which are not always exact repeats. Equal entries are not always repeated. One block for each substance: values may come before it.
Assays:
Test in all cases: other fluorescence titration
[1] = target: an individual nucleosome, whether mono or as part of an array
[2] = target: histone H2A-H2B complex, fluorescently labeled (Xenopus laevis) (UniProt P06897)
[3] = target: 207-bp linker DNA-containing nucleosome (Nuc207) (Xenopus laevis)
[4] = target: tri-nucleosome array LE (linker-ended), 621-bp DNA (Xenopus laevis)
[5] = target: 147-bp nucleosome, which contains no linker DNA (Nuc147) (Xenopus laevis)
[6] = target: tri-nucleosome array NLE (nonlinker-ended), 561-bp DNA (Xenopus laevis)
[7] = target: tail-less histone H2A-H2B complex, fluorescently labeled (Xenopus laevis) (UniProt P06897)
[8] = target: histone H3-H4 complex, fluorescently labeled (Xenopus laevis) (UniProt P84233)

stoichiometry N (FACT molecules per nucleosome) [1]: 1 and 2 | Kd [2]: 31 nM | Kd [3]: 22 nM | Kd [4]: 26 nM | stoichiometry N (FACT:tri-nucleosome) [4]: 3.3 | Kd [5]: 64 nM | Kd [6]: 36 nM | stoichiometry N (FACT:tri-nucleosome) [6]: 2.4 | fold lower affinity than for tail-containing H2A-H2B [7]: 7 fold
Substance: FACT (facilitates chromatin transcription) complex, full-length, de-phosphorylated (from UniProt Q9Y5B9;Q08945)

Kd [2]: 85 nM
Substance: Spt16 (Suppressor of ty 16) subunit of FACT (from UniProt Q9Y5B9 1-1047) (natural protein)

fold increase of Kd(app) against full-length FACT [2]: 6 fold | fold less affinity than FACT [3]: 20 fold | fold less affinity than SSRP1 alone [3]: 7 fold | Kd [8]: > 1000 nM
Substance: FACTΔCTD (Spt16 acidic C-terminal domain truncation + SSRP1) (from UniProt Q9Y5B9;Q08945) (complex)

Kd [3]: 67 nM | Kd [5]: > 1000 nM
Substance: SSRP1 (structure-specific recognition protein 1) subunit of FACT (from UniProt Q08945 1-709) (natural protein)

Reference: article PMC3308894
